Changes are numbered by the printed parent chain. Names and notes keep the numbering of the source.
What was measured:
[1] = biological target: T1, human CD200R1 recombinant protein (construct not stated) (human, UniProt Q8TD46 27-266, limits assumed); assay: hybridoma ELISA on human CD200R1
T1 sequence (looked up): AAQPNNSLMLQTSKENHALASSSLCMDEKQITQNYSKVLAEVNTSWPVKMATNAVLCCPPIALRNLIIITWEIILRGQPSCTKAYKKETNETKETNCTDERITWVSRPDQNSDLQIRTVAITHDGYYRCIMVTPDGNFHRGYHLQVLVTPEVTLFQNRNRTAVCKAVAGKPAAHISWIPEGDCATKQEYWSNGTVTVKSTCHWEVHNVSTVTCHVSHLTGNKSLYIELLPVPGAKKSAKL

[2] = biological target: T2, human CD200R1 expressed on cells (Jurkat-CD200R1, U937-CD200R1, HH cells) (human, UniProt Q8TD46 25-348); assay: flow cytometry, HH cells; drawn table, row EC50
T2 construct: whole, on cells; also called HH (CRL-2105); cell surface-expressed CD200R1
T2 sequence (looked up): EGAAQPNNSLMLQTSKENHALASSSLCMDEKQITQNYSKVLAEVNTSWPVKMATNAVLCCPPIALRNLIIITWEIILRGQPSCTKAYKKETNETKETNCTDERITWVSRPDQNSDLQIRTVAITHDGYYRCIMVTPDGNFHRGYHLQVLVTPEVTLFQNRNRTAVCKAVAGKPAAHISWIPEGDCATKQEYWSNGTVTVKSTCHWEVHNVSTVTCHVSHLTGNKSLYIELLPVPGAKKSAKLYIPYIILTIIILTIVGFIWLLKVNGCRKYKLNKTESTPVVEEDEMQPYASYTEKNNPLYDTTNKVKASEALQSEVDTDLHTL

[3] = biological target: T2, human CD200R1 expressed on cells …; assay: flow cytometry, HH cells; drawn table
[4] = biological target: T3, cynomolgus CD200R1 with dual His-tags (cynomolgus, UniProt G7NZT0 25-266); assay: SPR (Biacore CM5), His-tagged antigen captured by anti-histidine antibody, antibody as analyte, 1:1 Langmuir fit
T3 construct: Captured on the SPR chip by an anti-histidine antibody; also called CCD200R1-his; cCD200R1-his; not shown: dual His-tags
T3 sequence: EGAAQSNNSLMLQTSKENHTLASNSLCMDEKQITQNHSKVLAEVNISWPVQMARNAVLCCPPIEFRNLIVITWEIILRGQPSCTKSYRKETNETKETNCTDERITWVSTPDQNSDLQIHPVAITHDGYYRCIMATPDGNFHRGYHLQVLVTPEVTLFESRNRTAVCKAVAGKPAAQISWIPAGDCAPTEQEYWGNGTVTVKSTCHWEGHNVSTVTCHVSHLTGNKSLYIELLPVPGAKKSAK
Protocol: (§1) For the experiment, 30 μg/mL of an anti-histidine antibody was conjugated to a CM5 biacore chip via an amine bond while allowing to flow at 10 μl/min (10,000 RU). Then, 0.25 μg/mL of human or cynomolgus CD200R1 with dual His-tags was captured onto the completed chip for 60 seconds, and the binding ability of each antibody was analyzed. All experiments were performed by association of antibodies for 120 seconds and dissociation of antibodies for 600 seconds. The resulting graphs were fitted using a 1:1 Langmuir binding kinetic model (FIG. 16), and the kinetics of each antibody were calculated.

[5] = biological target: T4, human CD200R1 with dual His-tags (human, UniProt Q8TD46 25-265); assay: as above
T4 construct: Captured on the SPR chip by an anti-histidine antibody; also called hCD200R1-his; not shown: dual His-tags
T4 sequence (looked up): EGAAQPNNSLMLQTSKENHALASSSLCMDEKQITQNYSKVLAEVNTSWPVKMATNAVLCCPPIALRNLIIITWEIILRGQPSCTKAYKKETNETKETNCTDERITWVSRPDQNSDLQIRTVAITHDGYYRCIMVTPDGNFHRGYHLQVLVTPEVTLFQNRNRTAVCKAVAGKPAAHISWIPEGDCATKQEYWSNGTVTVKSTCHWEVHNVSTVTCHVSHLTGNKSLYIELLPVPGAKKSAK
Protocol: as §1

[6] = biological target: T2, human CD200R1 expressed on cells …; assay: flow cytometry, Jurkat-CD200R cells
Protocol: Two additional wells were treated with 10 μl of mouse IgG1K (BD, #555751) and 5 μl of commercial CD200R1 antibody (Biolegend, #329308) to determine CD200R1 expression on the cell line surface for cell quality control.
The antibodies were serially diluted 10-fold from a maximum concentration of 100 nM to 10 nM, 1 nM, […], and were added to the pre-seeded cells. After reaction for 1 hour at 4° C., the cells were treated with Alexa-647 goat anti-human IgG (H+L) cross-adsorbed secondary antibody (Invitrogen, #A21445) and incubated for an additional 30 minutes at 4° C. After washing twice with FACS buffer, flow cytometry was performed using a Novocyte Flow cytometer (Agilent). Using GraphPad Prism software, the EC₅₀ was determined using a nonlinear graph model of log (agonist) vs. response-variable slope, as shown in Table 32.

[7] = biological target: T5, human CD200RLa (Sino Biological, 11620-H08H) recombinant protein (human, UniProt Q6Q8B3 24-239); assay: ELISA, plate-bound human CD200RLa (2 ug/mL), antibody 0.0192-300 nM, O.D 450 nm; panel 'recombinant human CD200RLa'
T5 construct: Bought; construct not described
T5 sequence (looked up): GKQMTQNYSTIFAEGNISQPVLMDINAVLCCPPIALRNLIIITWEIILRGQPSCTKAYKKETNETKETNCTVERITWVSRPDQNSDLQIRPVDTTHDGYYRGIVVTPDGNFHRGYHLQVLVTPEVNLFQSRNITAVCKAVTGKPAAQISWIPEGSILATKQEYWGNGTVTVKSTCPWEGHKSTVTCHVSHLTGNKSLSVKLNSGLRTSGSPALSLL
Protocol: 96-well plates were coated with human CD200RLa (Sino Biological, 11620-H08H) and monkey CD200RLa (Sino Biological, 11576-C02H) recombinant proteins at a concentration of 2 μg/mL at 4° C. for 16 hours, and blocked with 3% skim milk for 1 hour. […] Color was developed with a TMB substrate solution (Thermo Scientific, 34029, 1-Step™ Ultra TMB-ELISA Substrate Solution). The color reaction was stopped with stop solution (Invitrogen, SS04, ELISA Stop Solution).

[8] = biological target: T2, human CD200R1 expressed on cells …; assay: flow cytometry on Jurkat-CD200R1 and HH cells, 500 nM antibody in IgG1 form
Protocol: The cells were washed by centrifugation at 130 g for 5 minutes. The cells were seeded onto 96-well round-bottom plates (SPL, #34296) at a density of 1×10⁵ cells/well in Flow cytometry staining buffer (Invitrogen, #00-4222-26) or FACS buffer. […] After incubation for 1 hour at 4° C., the cells were treated with Alexa-647 Goat anti-human IgG (H+L) cross-adsorbed secondary antibody (Invitrogen, #A21445) and incubated at 4° C. for an additional 30 minutes. After washing twice with FACS buffer, flow cytometry analysis was performed using a Novocyte Flow cytometer (Agilent).

[9] = biological target: T6, mouse CD200R1 protein (R&D systems, 2554-CD) (mouse, UniProt Q9ES57 26-238, limits assumed); assay: ELISA, plate-bound mouse CD200R1 (2 ug/mL), IgG 0.0192-300 nM, OD 450 nm; panel 'mouse CD200R1'
T6 construct: Bought; construct not described
T6 sequence (looked up): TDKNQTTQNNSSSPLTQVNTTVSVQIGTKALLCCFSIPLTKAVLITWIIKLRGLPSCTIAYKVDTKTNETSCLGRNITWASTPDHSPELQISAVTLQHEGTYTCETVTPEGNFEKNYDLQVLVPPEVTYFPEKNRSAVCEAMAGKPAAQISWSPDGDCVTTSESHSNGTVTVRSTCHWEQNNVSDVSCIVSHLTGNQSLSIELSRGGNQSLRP
Protocol: 96-well plates were coated with human CD200R1 (R&D systems, 3414-CD) and mouse CD200R1 protein (R&D systems, 2554-CD) at a concentration of 2 μg/mL at 4° C. for 16 hours and then were blocked with 3% skim milk.
Color was developed with a TMB substrate solution (Thermo Scientific, 34029, 1-Step™ TMB-ELISA Ultra Substrate Solution). The color reaction was stopped with stop solution (Invitrogen, SS04, ELISA Stop Solution). The absorbance was measured at an optical density of 450 nm.

B1: 6C3 (hybridoma clone) (antibody, V domains shown)
VH: QVQLQQPGAELVRPGASVKLSCKASAYTFTSYWMNWVKQRPEQGLEWIGRIDPYDSETHYNQKFKDKAILTVDKSSSTAYMQLSSLTSEDSAVYYCARVDGNHLFDYWGQGTTLTVSS
VL: DIKMTQSPSSMYASLGERVTITCKASQDINSYLSWFQQKPGKSPKTLIYRANRLVDGVPSRFSGSGSGQDYSLTISSLEYEDMGIYYCLQYDEFPYTFGGGTKLEIK
- ELISA O.D. [1]: ≥ 1.5 O.D.

B2: 6A8 (hybridoma clone) (antibody, V domains shown)
VH: QVQLQQPGAELVKPGAPVKLSCKASGYTFTSYWMNWVKQRPGRGLEWIGRIDPSDSETHYNQKFKDKATLTVDKSSSTAYIQLSSLTSEDSAVYYCARSGGWLPGFAYWGQGTLVTVSA
VL: ENVLTQSPAIMSASPGEKVTMTCSASSSLSYMLWYQQKSSTSPKLWIYDTSKLASGVPGRFSGSGSGNSYSLTISSMEAEDVGTYYCFQGSGNPLMYTFGGGTKLEIK
- ELISA O.D. [1]: ≥ 1.5 O.D.

B3: 1F1 (hybridoma clone) (antibody, V domains shown)
VH: B2 VH with L11F, S54A, T58I, L83F
VL: B2 VL with S30I, L33H, S75N, G83A, N93Y
- ELISA O.D. [1]: ≥ 1.5 O.D.

B4: 3G4 (hybridoma clone) (antibody, V domains shown)
VH: B2 VH with Y27F, F29L, S84T
VL: B2 VL with S26R, L29V, L33H, S40R, G83A, N93D
- ELISA O.D. [1]: ≥ 1.5 O.D.

B5: P001018 scFv mutant L3-T96R (scFv)
scFv: QVQLVQSGAEVKKPGASVKVSCKASGYTFTSYVMHWVRQAPGQGLEWMGYINPYNDDTNYNEKFKGRVTMTRDTSTSTVYMELSSLRSEDTAVYYCAREDYYGSRWGYWGQGTLVTVSSGGGGSGGGGSGGGGSDIVLTQSPASLAVSPGQRATITCRASKSVSTSGYSYMHWYQQKPGQPPKLLIYLASNLESGVPARFSGSGSGTDFTLTINPVEANDTANYYCQHSRELLRFGQGTKVEIK
- EC50 [2]: 7.26 nM
- Geo mean (%) at 0.05 nM [3]: 2.7%
- Geo mean (%) at 0.19 nM [3]: 7.5%
- Geo mean (%) at 0.78 nM [3]: 19.4%
- Geo mean (%) at 3.125 nM [3]: 40.2%
- Geo mean (%) at 12.5 nM [3]: 79.5%
- Geo mean (%) at 50 nM [3]: 91.1%
- Geo mean (%) at 200 nM [3]: 116%
- Geo mean (%) at 800 nM [3]: 123%

B6: 5E9 (hybridoma clone) (antibody, V domains shown)
VH: QVQLQQSGAELARPGASVKLSCKASGYTFTSYWMQWVKQRPGQGLEWIGAIYPGDGDTRYTQKFKGKATLTADKSSSTAYMQLRSLASEDSAVFYCARGGVTTLVPYFFDYWGQGATLTVSS
VL: DVLMTQTPLSLPVSLGDQASISCRSSQSIVHSNGNTYLEWYLQKPGQSPKLLIYKVSNRFSGVPDRFSGSGSGTDFTLKISRVEAEDLGVYYCFQGSHVPPTFGGGTKLEIK
- ELISA O.D. [1]: ≥ 1.5 O.D.

B7: P001009v2 (antibody, V domains shown)
VH: EVQLLESGGGLVQPGGSLRLSCAASGFTFSSYDMSWVRQAPGKGLEWVSWISHGGGSIYYADSVKGRFTISRDNSKNTLYLQMNSLRAEDTAVYYCARDAPAYSAPLFDYWGQGTLVTVSS
VL: QSVLTQPPSASGTPGQRVTISCSGSSSNIGNNAVNWYQQLPGTAPKLLIYYDKNRPSGVPDRFSGSKSGTSASLAISGLRSEDEADYYCAAWDRSLSGYVFGGGTKLTVL
notes: P001009 with LC S52K and D93R (Kabat); also called P019001v2
- Kd [4]: 0.0286 nM
- koff [4]: 8.08e-05 s⁻¹
- kon [4]: 2.82e+06 M⁻¹ s⁻¹
- Kd [5]: 0.87 nM
- koff [5]: 0.00654 s⁻¹
- kon [5]: 7.52e+06 M⁻¹ s⁻¹
- EC50 [6]: 3.08 nM

B8: P001006 (IgG) (antibody, V domains shown)
VH: EVQLLESGGGLVQPGGSLRLSCAASGFTFSDYAMSWVRQAPGKGLEWVSGISYGNGNTYYADSVKGRFTISRDNSKNTLYLQMNSLRAEDTAVYYCAKDPWQTAINDFDYWGQGTLVTVSS
VL: B7 VL with S23T, A33S, Y51T, D52N, K53S, N54H, G58E, A90G, A91T, R94S
- binding result [7]: no binding (tested: 300 nM)
- MFI normalized to P001017 (chimeric OX108), % [8]: > 50%
- binding result [9]: no binding (tested: 300 nM)
